Patent publication US20250320312A1 (OXITOPE PHARMA B V, published 2025)

T1: Peptide 8: Biotin-AEAAAKEAAAKEAAAKEAAAKAAA-Tyr-acid (N-terminal biotin; C-terminal acid)
T1 construct: control peptide without PC
T1 peptide: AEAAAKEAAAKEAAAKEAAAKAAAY

T2: Peptide 4: Biotin-AGGGGSGGGGSGGGGSAAA-Tyr-acid (N-terminal biotin; C-terminal acid)
T2 construct: control peptide without PC
T2 peptide: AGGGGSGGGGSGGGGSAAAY


Key:
Assay in all cases: scFv ELISA
[1] = molecular target: BSA (UniProt P02769)
[2] = molecular target: Peptide 5: Biotin-…-[Tyr(PC)]-acid
[3] = molecular target: Peptide 1: Biotin-…-[Tyr(PC)]-acid
[4] = molecular target: T1, Peptide 8: …
Procedure: (§1) For ELISA analysis of scFv binding, 96-well polystyrene plates were coated with Peptide 1, 4, 5, 8 or 100 μL BSA (10 μg/mL) in PBS at 4° C. overnight. Plates were washed three times with PBS-Tween and blocked with 100 μL 1% BSA-TBS for 1 hour at room temperature. 96-well streptavidin coated plates were coated with 100 μL biotinylated PC-peptides (1 μg/mL) in PBS for 1 hour at room temperature.
(§2) All plates were washed three times with PBS-Tween before 40 μL aliquots of PPE were added to assay plates along with 50 μL 10% BSA, and plates were incubated for 1 hour at room temperature. After washing, […] HRP conjugated anti-V5 in 5% BSA was added, and plates were incubated at room temperature for 30 mins. Plates were washed and 100 μL TMB substrate was added. Color was left to develop at room temperature before the reaction was stopped with 100 μL 1N HCl. The amount of scFv bound to each well was quantitated from absorbance measurement at 450 nm (OD450).

[5] = molecular target: T2, Peptide 4: …
Procedure: as §1, §2

Sequence of BSA (P02769 25-607 limits assumed): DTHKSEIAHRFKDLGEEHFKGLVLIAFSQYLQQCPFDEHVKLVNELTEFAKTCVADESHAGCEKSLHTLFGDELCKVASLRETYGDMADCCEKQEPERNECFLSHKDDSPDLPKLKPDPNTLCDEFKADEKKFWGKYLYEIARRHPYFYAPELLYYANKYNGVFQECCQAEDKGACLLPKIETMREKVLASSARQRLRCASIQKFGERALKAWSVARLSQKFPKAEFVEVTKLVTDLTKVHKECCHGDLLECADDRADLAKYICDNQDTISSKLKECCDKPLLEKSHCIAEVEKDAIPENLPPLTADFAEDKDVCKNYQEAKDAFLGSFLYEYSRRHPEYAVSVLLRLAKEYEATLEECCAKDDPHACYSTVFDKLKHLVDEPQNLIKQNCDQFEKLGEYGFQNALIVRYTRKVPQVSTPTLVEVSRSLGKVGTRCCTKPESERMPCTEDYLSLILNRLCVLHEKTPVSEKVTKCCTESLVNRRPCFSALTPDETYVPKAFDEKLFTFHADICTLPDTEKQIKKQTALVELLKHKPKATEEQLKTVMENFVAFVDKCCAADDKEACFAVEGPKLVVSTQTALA

OD450 [1] [OD450] | OD450 [2] [OD450] | OD450 [3] [OD450] | OD450 [4] [OD450] | OD450 [5] [OD450] | Binder
0.1 | 1.34 | 2.33 | 0.04 | 0.05 | PcOxP_DB02_B12 (scFv, V domains shown, scFv in periplasmic extract) VH: EVQLLESGGGLVQPGGSLRLSCAASGFTFSDYYMEWVRQAPGKGLEWVAASRNKANDYTTEYADSVKGRFTISRDNSKNTLYLQMNSLRAEDTAVYYCARDYYGSSYWYFDVWGQGTLVTVSS VL: DIQMTQSPSSLSASVGDRVTITCTASESLYSSKHKVHYLAWYQQKPGKAPKLLIYGQSNRYIGVPSRFSGSGSGTDFTLTISSLQPEDFATYYCAQFYSYPLTFGGGTKVEIK
0.11 | 1.03 | 0.54 | 0.05 | 0.05 | PcOxP_DB02_C06 (scFv, V domains shown, scFv in periplasmic extract) VH: EVQLLESGGGLVQPGGSLRLSCAASGFTFSDAYMEWVRQAPGKGLEWVAASRNKANDYTTEYADSVKGRFTISRDNSKNTLYLQMNSLRAEDTAVYYCARDYYGSSYWYFDVWGQGTLVTVSS VL: DIQMTQSPSSLSASVGDRVTITCTASEWLYSSKHKVHYLAWYQQKPGKAPKLLIYGASNRNIGVPSRFSGSGSGTDFTLTISSLQPEDFATYYCAQFYYYPLTFGGGTKVEIK
0.1 | 1.47 | 1.03 | 0.05 | 0.06 | PcOxP_DB02_C01 (scFv, V domains shown, scFv in periplasmic extract) VH: EVQLLESGGGLVQPGGSLRLSCAASGFTFSDAYMEWVRQAPGKGLEWVAASRNKANDYTTEYADSVKGRFTISRDNSKNTLYLQMNSLRAEDTAVYYCARDYYGSSYWYFDVWGQGTLVTVSS VL: DIQMTQSPSSLSASVGDRVTITCTASESLYSSKHKVHYLAWYQQKPGKAPKLLIYGASNRYIGVPSRFSGSGSGTDFTLTISSLQPEDFATYYCAQFYSYPLTFGGGTKVEIK
0.1 | 1.01 | 0.69 | 0.04 | 0.05 | PcOxP_DB02_C09 (scFv, V domains shown, scFv in periplasmic extract) VH: EVQLLESGGGLVQPGGSLRLSCAASGFTFSDAYMEWVRQAPGKGLEWVAASRNKANDYTTEYADSVKGRFTISRDNSKNTLYLQMNSLRAEDTAVYYCARDYYGSSYWYFDVWGQGTLVTVSS VL: DIQMTQSPSSLSASVGDRVTITCTASESLYSSKHKVHYLAWYQQKPGKAPKLLIYGAGNRYIGVPSRFSGSGSGTDFTLTISSLQPEDFATYYCAQFYFYPLTFGGGTKVEIK
0.11 | 0.79 | 0.35 | 0.04 | 0.07 | PcOxP_DB02_B06 (scFv, V domains shown, scFv in periplasmic extract) VH: EVQLLESGGGLVQPGGSLRLSCAASGFTFSDNYMEWVRQAPGKGLEWVAASRNKANDYTTEYADSVKGRFTISRDNSKNTLYLQMNSLRAEDTAVYYCARDYYGSSYWYFDVWGQGTLVTVSS VL: DIQMTQSPSSLSASVGDRVTITCTASESLYSSKHKVHYLAWYQQKPGKAPKLLIYGASNRYIGVPSRFSGSGSGTDFTLTISSLQPEDFATYYCTQFYSYPLTFGGGTKVEIK
0.1 | 0.62 | 0.35 | 0.05 | 0.05 | PcOxP_DB02_C02 (scFv, V domains shown, scFv in periplasmic extract) VH: EVQLLESGGGLVQPGGSLRLSCAASGFTFSDFYMEWVRQAPGKGLEWVAASRNKANDYTVEYADSVKGRFTISRDNSKNTLYLQMNSLRAEDTAVYYCARDYYGHSYWYFDVWGQGTLVTVSS VL: DIQMTQSPSSLSASVGDRVTITCTASESLYSSKHKVHYLAWYQQKPGKAPKLLIYGASNRYIGVPSRFSGSGSGTDFTLTISSLQPEDFATYYCAQFYSYPLTFGGGTKVEIK
0.08 | 1.03 | 0.67 | 0.04 | 0.04 | PcOxP_DB02_B10 (scFv, V domains shown, scFv in periplasmic extract) VH: EVQLLESGGGLVQPGGSLRLSCAASGFTESDFYMEWVRQAPGKGLEWVAASRNKANDYTTEYADSVKGRFTISRDNSKNTLYLQMNSLRAEDTAVYYCARDYYGSSYWYFDVWGQGTLVTVSS VL: DIQMTQSPSSLSASVGDRVTITCTASESLYSSKHKVHYLAWYQQKPGKAPKLLIYGASNRYIGVPSRFSGSGSGTDFTLTISSLQPEDFATYYCAQFYVYPLTFGGGTKVEIK

Second part, the binder before the results:

Binder | OD450 [1] [OD450] | OD450 [2] [OD450] | OD450 [3] [OD450] | OD450 [4] [OD450] | OD450 [5] [OD450]
PcOxP_DB01_G12 (scFv, V domains shown, scFv in periplasmic extract) VH: EVQLLESGGGLVQPGGSLRLSCAASGFTFSDGYMEWVRQAPGKGLEWVAASRNKANDYTTEYADSVKGRFTISRDNSKNTLYLQMNSLRAEDTAVYYCARDYYGSSYWYFDVWGQGTLVTVSS VL: DIQMTQSPSSLSASVGDRVTITCTASESLYSSKHKVHYLAWYQQKPGKAPKLLIYGASNRYFGVPSRFSGSGSGTDFTLTISSLQPEDFATYYCAQFYSYPLTFGGGTKVEIK | 0.09 | 1.33 | 0.75 | 0.06 | 0.07
PcOxP_DB02_B02 (scFv, V domains shown, scFv in periplasmic extract) VH: EVQLLESGGGLVQPGGSLRLSCAASGFTFSDYYMEWVRQAPGKGLEWVAASRNSGNDYTTEYADSVKGRFTISRDNSKNTLYLQMNSLRAEDTAVYYCARDYYGSSYWYFDVWGQGTLVTVSS VL: DIQMTQSPSSLSASVGDRVTITCTASESLYSSKHKVHYLAWYQQKPGKAPKLLIYGASNRLIGVPSRFSGSGSGTDFTLTISSLQPEDFATYYCAQFYWYPLTFGGGTKVEIK | 0.11 | 0.98 | 0.49 | 0.05 | 0.05
PcOxP_DB02_A12 (scFv, V domains shown, scFv in periplasmic extract) VH: EVQLLESGGGLVQPGGSLRLSCAASGFTFSDDYMEWVRQAPGKGLEWVAASRNKANDYTTEYADSVKGRFTISRDNSKNTLYLQMNSLRAEDTAVYYCARDYQGSSYWYFDVWGQGTLVTVSS VL: DIQMTQSPSSLSASVGDRVTITCTASESLYSSKHKVHYLAWYQQKPGKAPKLLIYGAFNRYTGVPSRFSGSGSGTDFTLTISSLQPEDFATYYCAQFYTYPLTFGGGTKVEIK | 0.06 | 0.27 | 0.2 | 0.06 | 0.05
PcOxP_DB02_A10 (scFv, V domains shown, scFv in periplasmic extract) VH: EVQLLESGGGLVQPGGSLRLSCAASGFAFSDFYMEWVRQAPGKGLEWVAASRNKANDYTTEYADSVKGRFTISRDNSKNTLYLQMNSLRAEDTAVYYCARDYYGSSYWYFDVWGQGTLVTVSS VL: DIQMTQSPSSLSASVGDRVTITCTASESLYSSKHKVHYLAWYQQKPGKAPKLLIYGASNRQSGVPSRFSGSGSGTDFTLTISSLQPEDFATYYCAQFYAYPLTFGGGTKVEIK | 0.11 | 0.9 | 0.42 | 0.04 | 0.05
PcOxP_DB02_A09 (scFv, V domains shown, scFv in periplasmic extract) VH: EVQLLESGGGLVQPGGSLRLSCAASGFTFSDTYMEWVRQAPGKGLEWVAASRNKANDYTTEYADSVKGRFTISRDNSKNTLYLQMNSLRAEDTAVYYCARDYYGSSYWYFDVWGQGTLVTVSS VL: DIQMTQSPSSLSASVGDRVTITCTASESLYSSKHKVHYLAWYQQKPGKAPKLLIYGASNRQSGVPSRFSGSGSGTDFTLTISSLQPEDFATYYCAQFYWYPLTFGGGTKVEIK | 0.11 | 1.3 | 0.98 | 0.04 | 0.05
PcOxP_DB02_A06 (scFv, V domains shown, scFv in periplasmic extract) VH: EVQLLESGGGLVQPGGSLRLSCAASGFTFSDQYMEWVRQAPGKGLEWVAASRNKANDYTTEYADSVKGRFTISRDNSKNTLYLQMNSLRAEDTAVYYCARDYYGSSYWYFDVWGQGTLVTVSS VL: DIQMTQSPSSLSASVGDRVTITCTASESLYSSKHKVHYLAWYQQKPGKAPKLLIYGLSNRYIGVPSRFSGSGSGTDFTLTISSLQPEDFATYYCAQFYSYPLTFGGGTKVEIK | 0.1 | 1.07 | 1.12 | 0.05 | 0.05
PcOxP_DB01_H10 (scFv, V domains shown, scFv in periplasmic extract) VH: EVQLLESGGGLVQPGGSLRLSCAASGFTFSDGYMEWVRQAPGKGLEWVAASRNKNNDYTTEYADSVKGRFTISRDNSKNTLYLQMNSLRAEDTAVYYCARDYYGSSYWYFDVWGQGTLVTVSS VL: DIQMTQSPSSLSASVGDRVTITCTASESLYSSKHKVHYLAWYQQKPGKAPKLLIYGASNRYFGVPSRFSGSGSGTDFTLTISSLQPEDFATYYCAQFYQYPLTFGGGTKVEIK | 0.08 | 1.39 | 0.6 | 0.06 | 0.06
PcOxP_DB02_A11 (scFv, V domains shown, scFv in periplasmic extract) VH: EVQLLESGGGLVQPGGSLRLSCAASGFTFSDGYMEWVRQAPGKGLEWVAASRNIANDYTTEYADSVKGRFTISRDNSKNTLYLQMNSLRAEDTAVYYCARDYYGSSYWYFDVWGQGTLVTVSS VL: DIQMTQSPSSLSASVGDRVTITCTASESLYSSKHKVHYLAWYQQKPGKAPKLLIYGASNRYHGVPSRFSGSGSGTDFTLTISSLQPEDFATYYCAQFYYYPLTFGGGTKVEIK | 0.09 | 0.89 | 0.64 | 0.04 | 0.04
PcOxP_DB01_H04 (scFv, V domains shown, scFv in periplasmic extract) VH: EVQLLESGGGLVQPGGSLRLSCAASGFAFSDFYMEWVRQAPGKGLEWVAASRNKANDYTTEYADSVKGRFTISRDNSKNTLYLQMNSLRAEDTAVYYCARDYYGSHYWYFDVWGQGTLVTVSS VL: DIQMTQSPSSLSASVGDRVTITCTASESLYSSKHKVHYLAWYQQKPGKAPKLLIYGASNLQSGVPSRFSGSGSGTDFTLTISSLQPEDFATYYCAQFYYYPLTFGGGTKVEIK | 0.11 | 1.92 | 2.01 | 0.07 | 0.07
